{
  "source": "IntAct's records for PubMed 24768165",
  "parents": {"B1": {"name": "Protein wntless homolog (Homo sapiens), Q5T9L3 (parent)", "chain": "MAGAIIENMSTKKLCIVGGILLVFQIIAFLVGGLIAPGPTTAVSYMSVKCVDARKNHHKTKWFVPWGPNHCDKIRDIEEAIPREIEANDIVFSVHIPLPHMEMSPWFQFMLFILQLDIAFKLNNQIRENAEVSMDVSLAYRDDAFAEWTEMAHERVPRKLKCTFTSPKTPEHEGRYYECDVLPFMEIGSVAHKFYLLNIRLPVNEKKKINVGIGEIKDIRLVGIHQNGGFTKVWFAMKTFLTPSIFIIMVWYWRRITMMSRPPVLLEKVIFALGISMTFINIPVEWFSIGFDWTWMLLFGDIRQGIFYAMLLSFWIIFCGEHMMDQHERNHIAGYWKQVGPIAVGSFCLFIFDMCERGVQLTNPFYSIWTTDIGTELAMAFIIVAGICLCLYFLFLCFMVFQVFRNISGKQSSLPAMSKVRRLHYEGLIFRFKFLMLITLACAAMTVIFFIVSQVTEGHWKWGGVTVQVNSAFFTGIYGMWNLYVFALMFLYAPSHKNYGEDQSNGDLGVHSGEELQLTTTITHVDGPTEIYKLTRKEAQE"}},
  "data": [
    {"variants_of": "B1", "settings": "with wnt3a_human WNT3A", "values": [
      {"variant": "R536A", "effect of a mutation on the interaction": "with no effect"},
      {"variant": "E538A", "effect of a mutation on the interaction": "with no effect"},
      {"variant": "K537A", "effect of a mutation on the interaction": "disrupting interaction strength"},
      {"variant": "E541A", "effect of a mutation on the interaction": "with no effect"},
      {"variant": "Q540A", "effect of a mutation on the interaction": "with no effect"}
    ]},
    {"variants_of": "B1", "settings": "with wnt3a_human WNT3A", "remark": "another data set of the same source", "values": [
      {"variant": "Y425A", "effect of a mutation on the interaction": "with no effect"}
    ]}
  ]
}
